Experimental data from patent US20050175608A1 (Kyowa Kirin, published 2005).
Numbering of substitutions follows the chain as printed.

T1: FGF-8 (manufactured by R & D) (Homo sapiens (Human), UniProt P55075 23-215)
T1 sequence: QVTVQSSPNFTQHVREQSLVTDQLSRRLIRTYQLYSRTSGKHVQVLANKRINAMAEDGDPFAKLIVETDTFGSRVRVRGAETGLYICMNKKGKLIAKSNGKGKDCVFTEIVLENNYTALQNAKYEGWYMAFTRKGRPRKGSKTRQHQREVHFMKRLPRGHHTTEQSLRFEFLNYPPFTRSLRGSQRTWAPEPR

T2: BSA-compound 1 (conjugate of the human FGF-8 partial peptide compound 1 with bovine serum albumin) (human, not fully specified; C-terminal cysteine conjugated to BSA through SMCC)
T2 construct: Coated on ELISA plates; the BSA carrier is not written as a chain
T2 peptide: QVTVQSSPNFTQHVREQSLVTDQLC

T3: compound 1 as a partial peptide of FGF-8 with the C terminal labeled with biotin (human, C terminal labeled with biotin)
T3 construct: Captured on Sensor Chip SA (35 RU) for BIAcore 2000; also called compound 1 labeled with biotin; FGF-8 peptide
T3 peptide: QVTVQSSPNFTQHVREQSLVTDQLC

B1: anti-FGF-8 neutralizing CDR-grafted antibody HV0LV4-3/CHO (antibody, V domains shown)
VH: QVQLVQSGAEVKKPGASVKVSCKASGYTFTDYYLNWVRQAPGQGLEWMGEIDPGSDSIYYNENLEGRVTITADTSTSTAYMELSSLRSEDTAVYYCARYGYSRYDVRFVYWGQGTLVTVSS
VL: DIVMTQSPLSLPVSLGEPASISCRSSQSLVHSNGRTYLEWYLQKPGQSPQVLIYKVSNRISGVPDRFSGSGSGTDFTLKISRVEAEDVGVYFCFQGSHVPYTFGQGTKVEIK
notes: HV.0 + LV.4-3; also called KM8035
B2: anti-FGF-8 neutralizing CDR-grafted antibody HV0LV3-3/CHO (antibody, V domains shown)
VH: B1 VH
VL: B1 VL with F92Y
notes: HV.0 + LV.3-3; CHO/DG44 cell-derived
B3: anti-FGF-8 neutralizing CDR-grafted antibody HV0LV6 (antibody, V domains shown)
VH: B1 VH
VL: B1 VL with I2V, Q50K
notes: HV.0 + LV.6; YB2/0 cell-derived; also called KM8037
B4: anti-FGF-8 neutralizing CDR-grafted antibody HV6LV6 (antibody, V domains shown)
VH: B1 VH with K12A, K13R, A40R, P41S, M48I, Y95F
VL: B1 VL with I2V, Q50K
notes: HV.6 + LV.6
B5: anti-FGF-8 neutralizing CDR-grafted antibody HV0LV0 (antibody, V domains shown)
VH: B1 VH
VL: B1 VL with S14T, L15P, V51L, F92Y
notes: HV.0 + LV.0
B6: anti-FGF-8 neutralizing chimeric antibody KM3334 (antibody, V domains shown)
VH: QVQLQQSGAEVARPGASVKLSCKASGYTFTDYYLNWVKQRSGQGLEWIGEIDPGSDSIYYNENLEGRATLTADKSSSTAYMQLNSLTSEDSAVYFCARYGYSRYDVRFVYWGQGTLVTVST
VL: B1 VL with I2V, V3L, S7T, E17D, P18Q, Q50K, V88L, Q105G, V109L
notes: expressed in YB2/0 cells; also called human chimeric antibody KM3334
B7: anti-FGF-8 neutralizing CDR-grafted antibody HV0LV3-1/CHO (antibody, V domains shown)
VH: B1 VH
VL: B1 VL with I2V, S14T, L15P
notes: HV.0 + LV.3-1; also called KM8036
B8: anti-FGF-8 neutralizing chimeric antibody KM3034 (antibody, V domains shown)
VH: B6 VH
VL: B1 VL with I2V, V3L, S7T, E17D, P18Q, Q50K, V88L, Q105G, V109L
notes: expressed in CHO/DG44 cells; also called human chimeric antibody KM3034
B9: anti-FGF-8 neutralizing CDR-grafted antibody HV0LV6/CHO (antibody, V domains shown)
VH: B1 VH
VL: B1 VL with I2V, Q50K
notes: HV.0 + LV.6; CHO/DG44 cell-derived; also called KM8034
B10: anti-FGF-8 neutralizing CDR-grafted antibody HV0LV4-2/CHO (antibody, V domains shown)
VH: B1 VH
VL: B1 VL with I2V, V51L
notes: HV.0 + LV.4-2; CHO/DG44 cell-derived
B11: anti-FGF-8 neutralizing CDR-grafted antibody HV0LV4-1/CHO (antibody, V domains shown)
VH: B1 VH
VL: B1 VL with I2V, S14T, L15P, Q50K
notes: HV.0 + LV.4-1; CHO/DG44 cell-derived
B12: anti-FGF-8 neutralizing CDR-grafted antibody HV0LV2-1/CHO (antibody, V domains shown)
VH: B1 VH
VL: B1 VL with S14T, L15P
notes: HV.0 + LV.2-1; CHO/DG44 cell-derived
B13: anti-FGF-8 neutralizing CDR-grafted antibody HV0LV3-2/CHO (antibody, V domains shown)
VH: B1 VH
VL: B1 VL with V51L
notes: HV.0 + LV.3-2; CHO/DG44 cell-derived
B14: anti-FGF-8 neutralizing CDR-grafted antibody HV0LV0/CHO (antibody, V domains shown)
VH: B1 VH
VL: B1 VL with S14T, L15P, V51L, F92Y
notes: HV.0 + LV.0; CHO/DG44 cell-derived
B15: anti-FGF-8 neutralizing CDR-grafted antibody HV0LV2-2/CHO (antibody, V domains shown)
VH: B1 VH
VL: B1 VL with I2V, S14T, L15P, V51L
notes: HV.0 + LV.2-2; CHO/DG44 cell-derived

These binders were tested against T1, FGF-8 (manufactured by R & D) (assay: cell-based or functional assay).

FGF-8 neutralizing activity (FGF-8-dependent growth of SC-3 cells), relative to KM3034	Binder
~0.5 fold of KM3034	B1
~0.5 fold of KM3034	B2

Target: T2, BSA-compound 1 (conjugate of the human …)
Assay: ELISA, plate coated with BSA-compound 1

binding result	Binder
binds	B3
binds	B4
binds	B5

Target: T2, BSA-compound 1 (conjugate of the human …)
Assay: ELISA, plate coated with BSA-compound 1; positive control
Protocol: The above-prepared BSA-compound 1 solution was dispensed at a 96-well ELISA plate (manufactured by Greiner) at a concentration of from 0.5 to 1.0 μg/mL in an amount of 50 μL/well, and allowed to stand overnight at 4° C. for adsorption. After washing with PBS, 1% BSA-containing PBS (hereinafter referred to as BSA-PBS) was added in an amount of 100 μL/well and reacted at room temperature for 1 hour to block a remaining active group. After washing each well with 0.05% Tween-containing PBS (hereinafter referred to as Tween-PBS), the culture supernatant or the purified antibody of the tranformants was added in an amount of 50 μL/well, and the reaction was conducted at room temperature for 1 hour. After the reaction, each well was washed with Tween-PBS, a peroxidase-labeled goat anti-human IgG (H & L) antibody solution (manufactured by American Qualex) diluted 3,000 to 6,000 times with BSA-PBS was added as a second antibody solution in an amount of 50 μL/well. The reaction was performed at room temperature for 1 hour. […] Then, absorbance was measured at 415 nm.

binding result	Binder
binds	B6

Target: T3, compound 1 as a partial peptide of …
Assay: BIAcore 2000, biotin-labeled compound 1 on SA chip, antibody 16.7 µg/mL; dissociation hardly observed
Protocol: (§1) In order to examine the FGF-8 binding activity of the anti-FGF-8 neutralizing CDR-grafted antibodies obtained in 5. of Reference Example 3, the FGF-8 binding activity of the various anti-FGF-8 neutralizing CDR-grafted antibodies was measured and compared through BIAcore 2000 using compound 1 as a partial peptide of FGF-8 with the C terminal labeled with biotin in the following manner. The anti-FGF-8 neutralizing chimeric antibody KM3034 derived from CHO/DG44 cells obtained in 3. (1) of Reference Example 1 was used as a positive control.
(§2) HBS-EP was used as a sample diluent and a buffer during measurement. First, Sensor Chip SA (manufactured by BIACORE) was installed, and 5 μL of compound 1 labeled with biotin which had been adjusted to 0.05 μg/mL was added at a flow rate of 5 μL/min. Then, 5 μL of a 10 mmol/L glycine-hydrochloride solution (pH 1.5) was added twice continuously to wash the tip surface. The immobilization amount of the FGF-8 peptide was 35 RU.
60 μL of each of the antibody solutions was added to an FGF-8 peptide immobilized flow cell at a flow rate of 20 μL/min, and the dissociation reaction was then monitored for 3 minutes. After the dissociation reaction, 20 μL of 10 mmol/L glycine-hydrochloride solution (pH 1.5) was added twice continuously to regenerate the chip surface. […]

binding result	Binder
binds	B1
binds	B2

Target: T3, compound 1 as a partial peptide of …
Assay: BIAcore 2000, biotin-labeled compound 1 on SA chip (35 RU), antibody 16.7 µg/mL; dissociation hardly observed
Protocol: as §1, §2
60 μL of each of the antibody solutions was added to an FGF-8 peptide immobilized flow cell at a flow rate of 20 μL/min, and the dissociation reaction was then monitored for 3 minutes. After the dissociation reaction, 20 μL of 10 mmol/L glycine-hydrochloride solution (pH 1.5) was added twice continuously to regenerate the chip surface. This cycle was performed on the antibody solution at various concentrations (from 50 to 1.85 μg/mL) to obtain sensor grams at various concentrations. The sensor grams of the respective antibodies were converted to sensor grams of specific reactions by deduceing a sensor gram obtained using the chimeric antibody KM871 to GD3 as a negative control.

binding result	Binder
binds	B7
binds	B8
binds	B9
binds	B10
binds	B11
binds	B12
binds	B13
binds	B14
binds	B15
